The results in this text go back to patent publication US20250388666A1 (BRIGHAM AND WOMEN S HOSPITAL, published 2025).

In assay [1] the target is T1, CEACAM5 on transfected HeLa cells (UniProt P06731 35-685).
T1 construct: whole, on cells; also called C5
T1 sequence (looked up): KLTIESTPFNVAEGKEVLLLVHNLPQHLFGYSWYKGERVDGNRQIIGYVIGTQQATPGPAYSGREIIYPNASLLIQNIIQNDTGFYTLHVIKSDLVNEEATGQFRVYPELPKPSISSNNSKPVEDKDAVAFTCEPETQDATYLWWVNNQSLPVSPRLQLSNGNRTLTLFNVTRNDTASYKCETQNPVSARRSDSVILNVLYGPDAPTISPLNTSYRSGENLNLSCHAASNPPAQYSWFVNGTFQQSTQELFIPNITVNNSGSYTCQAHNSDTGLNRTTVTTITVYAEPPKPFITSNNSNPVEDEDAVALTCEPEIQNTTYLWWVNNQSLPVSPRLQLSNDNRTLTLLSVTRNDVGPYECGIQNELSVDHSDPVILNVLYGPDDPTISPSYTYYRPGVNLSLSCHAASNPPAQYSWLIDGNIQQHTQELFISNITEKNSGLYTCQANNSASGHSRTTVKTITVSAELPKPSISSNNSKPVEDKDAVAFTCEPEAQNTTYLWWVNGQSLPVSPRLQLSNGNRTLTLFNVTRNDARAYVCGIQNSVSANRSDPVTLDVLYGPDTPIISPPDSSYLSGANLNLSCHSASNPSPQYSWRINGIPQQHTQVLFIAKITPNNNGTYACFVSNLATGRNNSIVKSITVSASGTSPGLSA
Briefly: flow cytometry, transfected HeLa. As to the method: (§1) Binding selectivity of the selected antibody variants was assessed by flow cytometry using HeLa cells transfected with vectors expressing CEACAM1, CEACAM5, and CEACAM6, respectively. The resulting cells were used for flow cytometry experiments and were cultured at 37° C., 5.0% CO₂ in Dulbecco's modified Eagle's medium supplemented with 10% fetal bovine serum, penicillin (100 U/ml) and dihydrostreptomycin ([…]). Cell lines were stained with the indicated antibodies followed by fluorochrome-conjugated monoclonal antibody specific for the indicated antibody isotypes such as human IgG4 or mouse IgG1 together with viable dye (DAPI). Data were acquired with a Cytoflex flow cytometer ([…]) and analyzed with FlowJo software (TreeStar, V7.6.5 for Windows).

The target in assay [2] is T2, CEACAM1 on transfected HeLa cells (Homo sapiens (Human), UniProt P13688 35-526).
T2 construct: also called C1
T2 sequence: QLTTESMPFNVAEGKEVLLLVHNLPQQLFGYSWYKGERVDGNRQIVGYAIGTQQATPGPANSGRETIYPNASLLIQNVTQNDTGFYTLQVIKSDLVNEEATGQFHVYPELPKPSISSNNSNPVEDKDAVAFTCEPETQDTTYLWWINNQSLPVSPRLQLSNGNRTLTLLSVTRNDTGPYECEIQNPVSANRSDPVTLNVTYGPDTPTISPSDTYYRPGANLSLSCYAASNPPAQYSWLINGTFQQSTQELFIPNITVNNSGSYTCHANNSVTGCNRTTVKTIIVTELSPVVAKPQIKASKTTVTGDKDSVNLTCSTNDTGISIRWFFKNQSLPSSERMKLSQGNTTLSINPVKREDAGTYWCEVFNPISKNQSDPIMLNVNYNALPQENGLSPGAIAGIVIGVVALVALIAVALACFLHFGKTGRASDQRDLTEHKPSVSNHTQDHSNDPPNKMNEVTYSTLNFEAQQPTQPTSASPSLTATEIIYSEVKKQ
Description: flow cytometry, transfected HeLa. The procedure:
as §1
For orientation: Flow cytometry measures light scatter and fluorescence of single cells or particles in a stream.

The target in assay [3] is T3, CEACAM1 (Sino Biological) (human, UniProt P13688 35-428, limits assumed).
T3 construct: may be the same as CEACAM1-HIS; also called hCEACAM1; biotinylated soluble CEACAM1
T3 sequence: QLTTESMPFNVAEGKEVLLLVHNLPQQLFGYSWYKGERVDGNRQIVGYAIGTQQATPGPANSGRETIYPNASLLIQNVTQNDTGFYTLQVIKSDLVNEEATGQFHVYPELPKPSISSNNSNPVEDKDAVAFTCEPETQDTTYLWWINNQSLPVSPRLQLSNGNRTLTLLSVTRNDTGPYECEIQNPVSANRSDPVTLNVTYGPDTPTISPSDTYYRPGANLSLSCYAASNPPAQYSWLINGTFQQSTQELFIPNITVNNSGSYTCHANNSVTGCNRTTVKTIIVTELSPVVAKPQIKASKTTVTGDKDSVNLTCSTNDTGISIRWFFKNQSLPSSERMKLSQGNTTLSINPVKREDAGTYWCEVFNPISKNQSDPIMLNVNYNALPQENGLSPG
Briefly: SPR single-cycle; one of the two experiments; the Parent of the other experiment reads 551 nM (r135).

The target of assay [4] is T3, CEACAM1 (Sino Biological). Description: SPR multi-cycle, IgG on Protein A.

By Kd is commonly meant the equilibrium constant for the complex coming apart.

B1: chimeric parental antibody VH0/Vκ0 (antibody, IgG4, V domains shown)
VH: EVQLVESGGGFVKPGGSLKLSCAASGFSFSDYYLYWVRQTPEKRLEWVATISVGGGNTSYPDSVKGRFTISRDNAKNNLYLQMSSLKSEDTAMYYCTRGLYYGPAWFAYWGQGTLVTVSA
VL: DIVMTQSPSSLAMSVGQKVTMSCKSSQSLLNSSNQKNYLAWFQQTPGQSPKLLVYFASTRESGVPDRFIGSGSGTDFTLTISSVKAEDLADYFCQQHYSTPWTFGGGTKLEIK
notes: IgG4 (S241P), kappa; also called Chimera; chimeric antibody
Consider B1, for which the relative fluorescence intensity worked out at 0.42 in assay [1] and 84.2 in assay [2].

B2: VH2 N56Q/Vκ4 S27(f)A IgG (antibody, V domains shown)
VH: EVQLLESGGGLVQPGGSLRLSCAASGFSFSDYYLYWVRQAPGKGLEWVATISVGGGQTSYADSVKGRFTISRDNSKNTLYLQMNSLRAEDTAMYYCTRGLYYGPAWFAYWGQGTLVTVSS
VL: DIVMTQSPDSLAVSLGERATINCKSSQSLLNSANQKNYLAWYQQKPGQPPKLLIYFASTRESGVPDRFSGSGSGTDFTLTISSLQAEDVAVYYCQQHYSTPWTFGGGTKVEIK
notes: IgG4 S241P, kappa; also called Parent; Parent IgG
For the molecule B2, the Kd in assay [3] came out at 159 nM. Further, the relative fluorescence intensity is 0 in assay [1] and 89.3 in assay [2]. For the same molecule, the “relative KD to Parent” value in assay [4] worked out at 1 ratio.
